Laboratory results taken from the supplement of paper PMC12042874.
± gives the uncertainty stated by the source.

test: amyloid nucleation score (Sup35N fusion, yeast selection) (log enrichment); library NNK3; higher = more nucleation; inactive = no reads after selection
Outline: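 The nucleation score is a DiMSum log enrichment of output over input reads, centred on the mode score of non-aggregating sequences. Sequences under 100 input reads were excluded, and reads came from Illumina sequencing of plasmid inserts. Psi-negative yeast expressing Sup35N fused to peptides of 20 random codons were induced with 100 μM copper sulfate for 24 hours and grown 7 days at 30°C on medium lacking adenine and uracil. Random libraries had three technical output replicates.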

Substance | amyloid nucleation score
SHYLLMFLVSDTLV | inactive
SHYRIMT | inactive
SIAIRVRAIIGKSRGKCPNG | 1.81 ± 0.092
SICCKVRTSTYVRLCMLVLP | inactive
SICGKSSCMCVTNVSPLDSQ | 0.304 ± 0.21
SICIRFF | inactive
SICMNNLCVSWTMPYT | 1.5 ± 0.11
SIDVLKTNINDIRFVIKIRR | inactive
SIDYADVK | inactive
SIFKVISERQSV | inactive
SIICCAFLVVQFKER | 2.62 ± 0.084
SIIGKNYKFRATSINKGISM | inactive
SILMTVYDGYHKRSKNIAQC | inactive
SILTMLPKFGFVESLLECEG | inactive
SINCTYPVRND | inactive
SIQCSK | inactive
SIVDSVQQVSVRWAMYT | -0.433 ± 1.8
SIYLCLYREVSTVWGKRSN | inactive
SKECILVLAFDGCSGSSRWY | inactive
SKLLIPHNNGRYSFFWSIGM | 2.04 ± 0.078
SKRNPRMRSQLFIGDYFAYP | -1.13 ± 1.9
SKSFVYPVNVCRRWLAVLGN | inactive
SKSIMTWWEVLDGGSNLKSV | inactive
SKSNIRYSNTNGH | inactive

Substance | amyloid nucleation score
SKVKDDALPTTILCGTYNLN | inactive
SKVKFILTRVPLFLLRIAES | inactive
SKVRMVGVSKKCGLTVISVQ | inactive
SKWAFPYPA | inactive
SKYPRLSCHRIRNVRLGWTL | 1.34 ± 0.085
SLAMTFYSGIGFYCFSCFFN | 2.36 ± 0.059
SLCLASGFKRCNIV | -0.072 ± 0.8
SLDFIHRNFVARQCIHNKGH | inactive
SLDMYPVVKKCYTYFFFQYF | 1.16 ± 0.11
SLFCRWLVVYPSMLRVKRVR | inactive
SLFINT | inactive
SLFKEWAWA | inactive
SLFVLCFH | 0.717 ± 0.13
SLKARDVRSWSLSLLVQLAF | inactive
SLKSNTVCDNL | inactive
SLLGISVFKPERANTGQRLV | 0.721 ± 0.23
SLLLLSGFEVSSKR | inactive
SLLSRFIEEGASCRCTRDGS | inactive
SLMSGWN | inactive
SLNMSN | inactive
SLNNCGLLWYPSTTPPESLG | inactive
SLNRWLSKYYLHTA | inactive
SLRPGLVLVIERNEFKS | inactive
SLSFSVLLHWIFCYFWILY | inactive

Substance | amyloid nucleation score
SLSNSVWINFARNGLSSLCQ | inactive
SLSPDPFEFLLLSLLLRSAV | inactive
SLVGGICVRHREDVDTQKFK | inactive
SLVPDNAANAMRPTWINLWW | 1.84 ± 0.078
SLVTFMLLMIKGMSGYFRTV | inactive
SLWMFCYSDSYRCKDNFLRN | inactive
SLYGKDYTKTVFSDAVFVCF | inactive
SMCKDFSAACESICGIPVGY | inactive
SMGLR | inactive
SMGRYDLLPTPDVVSLSYNM | inactive
SMKSGSATCGIN | inactive
SMNFLICMIWSIVS | 1.02 ± 0.21
SMQRNSQFLLAQYTDPGGN | inactive
SMVGVFQKVFKTITTTYADV | inactive
SMWQQVYSLSTLF | inactive
SNEGE | inactive
SNFVIVSWIVTNVLRM | 0.869 ± 0.094
SNGLATLSLSWCNCIKGGSL | 2.9 ± 0.052
SNHVWFDLFGEYDASCFCTV | inactive
SNIGHM | inactive
SNLDFMMGINSFRRVKAEPG | -0.251 ± 0.57
SNLLS | inactive
SNLNWPWKYPNMWFLLS | inactive
SNLSNPLIVMKFYQAAMGVH | inactive

Substance | amyloid nucleation score
SNQLSFLYNN | -0.409 ± 0.76
SNSDVN | inactive
SNSYHIVVYVRYGHSHG | 2.62 ± 0.083
SNTFTPKGNPLWSSVCVFHQ | inactive
SNVCINLAGYDYIFFRCMMG | 0.293 ± 0.24
SNVLGWLRKLYS | inactive
SNWKGEISIHEGMLGCT | inactive
SNWVISVLVRVNLAYAYLTD | inactive
SPCYISINTFPVRKILYPCI | -0.264 ± 0.64
SPDVLFESKYRFWDMLSQIA | inactive
SPLLGINYRVFNVCLLERR | 0.909 ± 0.21
SPLSRWLVDNTGPLGGSLSR | inactive
SPNNTTFSHYRFCLL | inactive
SPNWGLLGICLSTSRVQAL | 1.86 ± 0.082
SPPLYSYRGRYMERYHSKWN | inactive
SPPTGYRASNWRGLGSVDGW | inactive
SPVAYRSTWFVFRNNSHYDQ | inactive
SPWAMGCECLVRGGLEKYAK | inactive
SQKEGNKDRPVCVSGNSSCS | inactive
SQVLWGTSRGLYYTDRNFTN | inactive
SQVVSRSLVRLEQRNAQKSV | inactive
SQYHQASNAMWVLFSGI | inactive
SRCIDGSAWASVAQRRSFSE | -0.098 ± 0.85
SRDMCAWWVYSGSSQSNECM | inactive

Substance | amyloid nucleation score
SREWSKSVVCTYLTMRGRLS | inactive
SRFDDCSVYRESWVSIVRLS | inactive
SRLTAFMNYVGCRMVSGWTR | inactive
SRMTIIWVTVRISRNGTWNF | inactive
SRMTIVKSWKRMLGRLLMRL | inactive
SRQLQPYYSVFRCLVRGSIK | inactive
SRQNIFLLRLKTMTGQSVNI | inactive
SRRNIPVGGLSNWLPVWSVG | inactive
SRRSHWFWEPSDTCASFTRP | inactive
SRRSMHRVVSHVREGS | -0.164 ± 0.96
SRRTIVNQSSF | inactive
SRRVISEHSMEGNTID | inactive
SRVHPPLWIKCTVGMVPQTC | inactive
SRVLDGVWRAVLSCFQGSSI | 0.867 ± 0.12
SRVNCLARLRSPARLMPMVR | inactive
SRWNK | inactive
SRWYFGLLLMNNTHTVNVPL | inactive
SRYLGKGFVSGTCDVGCGLN | inactive
SSDIIHGNDVRSLVRRDRSL | inactive
SSDMFFRYESPVH | inactive
SSDYTLVEILSVLFCPVGCS | inactive
